As usually defined, the Kd is the free concentration of one partner at which half of the binding sites on the other are occupied at equilibrium, for simple one-to-one binding.

Kd data for one molecule are collected here from patent EP1664122B1 (Novartis AG, dated 2010).

The target of assay [1] is human CD45 on the human T cell line PEER (human) (UniProt P08575). The assay can be described thus: FACS competition with FITC-conjugated mA6 on PEER cells; curve fit assuming divalent antibody binding.
The target of assay [2] is T1, cynomolgus monkey CD45 on the T cell line HSC-F (cynomolgus monkey, UniProt A0A2K5VQ76 26-1301).
T1 construct: whole, on cells; also called cynomolgus HSC-F cell target
T1 sequence: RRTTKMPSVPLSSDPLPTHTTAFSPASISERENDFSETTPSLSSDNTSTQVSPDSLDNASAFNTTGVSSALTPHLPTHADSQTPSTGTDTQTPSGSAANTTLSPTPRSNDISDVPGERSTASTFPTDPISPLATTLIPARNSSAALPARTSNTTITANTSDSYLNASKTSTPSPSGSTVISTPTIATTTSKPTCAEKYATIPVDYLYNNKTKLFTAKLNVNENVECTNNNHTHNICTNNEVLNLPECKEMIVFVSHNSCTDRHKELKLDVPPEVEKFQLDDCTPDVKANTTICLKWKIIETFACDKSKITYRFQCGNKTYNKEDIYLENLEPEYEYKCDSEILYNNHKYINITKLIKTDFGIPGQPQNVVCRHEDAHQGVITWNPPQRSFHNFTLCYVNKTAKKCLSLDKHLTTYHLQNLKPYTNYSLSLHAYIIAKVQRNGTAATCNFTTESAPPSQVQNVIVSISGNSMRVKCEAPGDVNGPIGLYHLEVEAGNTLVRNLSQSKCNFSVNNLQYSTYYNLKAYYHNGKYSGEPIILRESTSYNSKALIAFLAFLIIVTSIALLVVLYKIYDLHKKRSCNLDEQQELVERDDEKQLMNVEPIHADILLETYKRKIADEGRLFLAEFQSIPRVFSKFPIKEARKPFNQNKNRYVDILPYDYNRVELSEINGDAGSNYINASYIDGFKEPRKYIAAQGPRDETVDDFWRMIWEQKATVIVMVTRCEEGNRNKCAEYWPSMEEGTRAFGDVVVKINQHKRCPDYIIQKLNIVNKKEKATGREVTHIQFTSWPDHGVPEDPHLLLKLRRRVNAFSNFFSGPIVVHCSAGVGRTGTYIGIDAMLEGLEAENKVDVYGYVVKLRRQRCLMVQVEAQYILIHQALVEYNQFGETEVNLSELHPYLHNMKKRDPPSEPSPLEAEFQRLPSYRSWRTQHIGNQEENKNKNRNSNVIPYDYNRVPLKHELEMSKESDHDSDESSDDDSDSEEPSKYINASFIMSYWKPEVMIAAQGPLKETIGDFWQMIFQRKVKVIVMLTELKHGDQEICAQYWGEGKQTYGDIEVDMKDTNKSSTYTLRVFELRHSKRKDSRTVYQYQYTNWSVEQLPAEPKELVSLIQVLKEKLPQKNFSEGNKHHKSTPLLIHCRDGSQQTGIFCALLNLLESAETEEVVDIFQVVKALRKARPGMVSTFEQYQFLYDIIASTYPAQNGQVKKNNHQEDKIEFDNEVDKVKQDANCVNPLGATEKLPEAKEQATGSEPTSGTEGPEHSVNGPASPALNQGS
In words: FACS competition with FITC-conjugated mA6 on HSC-F cells; curve fit assuming divalent antibody binding.

B1: humanised antibody VHE-N73D/humV1 (antibody, V domains shown)
VH: EVQLVESGAEVKKPGASVKVSCKASGYTFTNYIIHWVKQEPGQGLEWIGYFNPYNHGTKYNEKFKGRATLTADKSISTAYMELSSLRSEDTAVYYCARSGPYAWFDTWGQGTTVTVSS
VL: DILLTQSPATLSLSPGERATLSCRASQNIGTSIQWYQQKPGQAPRLLIRSSSESISGIPSRFSGSGSGTDFTLTISSLEPEDFAVYYCQQSNTWPFTFGQGTKLEIK
notes: Constant parts are human gamma-1 and human kappa; expressed in Sp2/0 cells; also called VHEN73D/VL1; VHEN73D/VLh
On to B1, for which the dissociation constant (Kd) was determined as 2.44 nM in assay [1] and 1.67 nM in assay [2].
